B1: LdcCEc: Enzyme candidate for BDO biosynthetic pathway step A5, SEQ ID NO. 62 (protein, listed as Escherichia coli)
chain: MNIIAIMGPHGVFYKDEPIKELESALVAQGFQIIWPQNSVDLLKFIEHNPRICGVIFDWDEYSLDLCSDINQLNEYLPLYAFINTHSTMDVSVQDMRMALWFFEYALGQAEDIAIRMRQYTDEYLDNITPPFTKALFTYVKERKYTFCTPGHMGGTAYQKSPVGCLFYDFFGGNTLKADVSISVTELGSLLDHTGPHLEAEEYIARTFGAEQSYIVTNGTSTSNKIVGMYAAPSGSTLLIDRNCHKSLAHLLMMNDVVPVWLKPTRNALGILGGIPRREFTRDSIEEKVAATTQAQWPVHAVITNSTYDGLLYNTDWIKQTLDVPSIHFDSAWVPYTHFHPIYQGKSGMSGERVAGKVIFETQSTHKMLAALSQASLIHIKGEYDEEAFNEAFMMHTTTSPSYPIVASVETAAAMLRGNPGKRLINRSVERALHFRKEVQRLREESDGWFFDIWQPPQVDEAECWPVAPGEQWHGFNDADADHMFLDPVKVTILTPGMDEQGNMSEEGIPAALVAKFLDERGIVVEKTGPYNLLFLFSIGIDKTKAMGLLRGLTEFKRSYDLNLRIKNMLPDLYAEDPDFYRNMRIQDLAQGIHKLIRKHDLPGLMLRAFDTLPEMIMTPHQAWQRQIKGEVETIALEQLVGRVSANMILPYPPGVPLLMPGEMLTKESRTVLDFLLMLCSVGQHYPGFETDIHGAKQDEDGVYRVRVLKMAG
B2: GadBEc: Enzyme candidate for BDO biosynthetic pathway step A5, SEQ ID NO. 64 (protein, listed as Escherichia coli)
chain: MDKKQVTDLRSELLDSRFGAKSISTIAESKRFPLHEMRDDVAFQIINDELYLDGNARQNLATFCQTWDDENVHKLMDLSINKNWIDKEEYPQSAAIDLRCVNMVADLWHAPAPKNGQAVGTNTIGSSEACMLGGMAMKWRWRKRMEAAGKPTDKPNLVCGPVQICWHKFARYWDVELREIPMRPGQLFMDPKRMIEACDENTIGVVPTFGVTYTGNYEFPQPLHDALDKFQADTGIDIDMHIDAASGGFLAPFVAPDIVWDFRLPRVKSISASGHKFGLAPLGCGWVIWRDEEALPQELVFNVDYLGGQIGTFAINFSRPAGQVIAQYYEFLRLGREGYTKVQNASYQVAAYLADEIAKLGPYEFICTGRPDEGIPAVCFKLKDGEDPGYTLYDLSERLRLRGWQVPAFTLGGEATDIVVMRIMCRRGFEMDFAELLLEDYKASLKYLSDHPKLQGIAQQNSFKHT
B3: PanDEc: Enzyme candidate for BDO biosynthetic pathway step A5, SEQ ID NO. 61 (protein, listed as Escherichia coli)
chain: MIRTMLQGKLHRVKVTHADLHYEGSCAIDQDFLDAAGILENEAIDIWNVTNGKRFSTYAIAAERGSRIISVNGAAAHCASVGDIVIIASFVTMPDEEARTWRPNVAYFEGDNEMKRTAKAIPVQVA
B4: MenDEc: Enzyme candidate for BDO biosynthetic pathway step A5, SEQ ID NO. 65 (protein, listed as Escherichia coli)
chain: MSVSAFNRRWAAVILEALTRHGVRHICIAPGSRSTPLTLAAAENSAFIHHTHFDERGLGHLALGLAKVSKQPVAVIVTSGTAVANLYPALIEAGLTGEKLILLTADRPPELIDCGANQAIRQPGMFASHPTHSISLPRPTQDIPARWLVSTIDHALGTLHAGGVHINCPFAEPLYGEMDDTGLSWQQRLGDWWQDDKPWLREAPRLESEKQRDWFFWRQKRGVVVAGRMSAEEGKKVALWAQTLGWPLIGDVLSQTGQPLPCADLWLGNAKATSELQQAQIVVQLGSSLTGKRLLQWQASCEPEEYWIVDDIEGRLDPAHHRGRRLIANIADWLELHPAEKRQPWCVEIPRLAEQAMQAVIARRDAFGEAQLAHRICDYLPEQGQLFVGNSLVVRLIDALSQLPAGYPVYSNRGASGIDGLLSTAAGVQRASGKPTLAIVGDLSALYDLNALALLRQVSAPLVLIVVNNNGGQIFSLLPTPQSERERFYLMPQNVHFEHAAAMFELKYHRPQNWQELETAFADAWRTPTTTVIEMVVNDTDGAQTLQQLLAQVSHL
B5: SpeFEc: Enzyme candidate for BDO biosynthetic pathway step A5, SEQ ID NO. 63 (protein, listed as Escherichia coli)
chain: MSKLKIAVSDSCPDCFTTQRECIYINESRNIDVAAIVLSLNDVTCGKLDEIDATGYGIPVFIATENQERVPAEYLPRISGVFENCESRREFYGRQLETAASHYETQLRPPFFRALVDYVNQGNSAFDCPGHQGGEFFRRHPAGNQFVEYFGEALFRADLCNADVAMGDLLIHEGAPCIAQQHAAKVFNADKTYFVLNGTSSSNKVVLNALLTPGDLVLFDRNNHKSNHHGALLQAGATPVYLETARNPYGFIGGIDAHCFEESYLRELIAEVAPQRAKEARPFRLAVIQLGTYDGTIYNARQVVDKIGHLCDYILFDSAWVGYEQFIPMMADCSPLLLDLNENDPGILVTQSVHKQQAGFSQTSQIHKKDSHIKGQQRYVPHKRMNNAFMMHASTSPFYPLFAALNINAKMHEGVSGRNMWMDCVVNGINARKLILDNCQHIRPFVPELVDGKPWQSYETAQIAVDLRFFQFVPGEHWHSFEGYAENQYFVDPCKLLLTTPGIDARNGEYEAFGVPATILANFLRENGVVPEKCDLNSILFLLTPAEDMAKLQQLVALLVRFEKLLESDAPLAEVLPSIYKQHEERYAGYTLRQLCQEMHDLYARHNVKQLQKEMFRKEHFPRVSMNPQEANYAYLRGEVELVRLPDAEGRIAAEGALPYPPGVLCVVPGEIWGGAVLRYFSALEEGINLLPGFAPELQGVYIEEHDGRKQVWCYVIKPRDAQSTLLKGEKL
B6: PoxBEc: Enzyme candidate for BDO biosynthetic pathway step A5, SEQ ID NO. 60 (protein, listed as Escherichia coli)
chain: MKQTVAAYIAKTLESAGVKRIWGVTGDSLNGLSDSLNRMGTIEWMSTRHEEVAAFAAGAEAQLSGELAVCAGSCGPGNLHLINGLFDCHRNHVPVLAIAAHIPSSEIGSGYFQETHPQELFRECSHYCELVSSPEQIPQVLAIAMRKAVLNRGVSVVVLPGDVALKPAPEGATMHWYHAPQPVVTPEEEELRKLAQLLRYSSNIALMCGSGCAGAHKELVEFAGKIKAPIVHALRGKEHVEYDNPYDVGMTGLIGFSSGFHTMMNADTLVLLGTQFPYRAFYPTDAKIIQIDINPASIGAHSKVDMALVGDIKSTLRALLPLVEEKADRKFLDKALEDYRDARKGLDDLAKPSEKAIHPQYLAQQISHFAADDAIFTCDVGTPTVWAARYLKMNGKRRLLGSFNHGSMANAMPQALGAQATEPERQVVAMCGDGGFSMLMGDFLSVVQMKLPVKIVVFNNSVLGFVAMEMKAGGYLTDGTELHDTNFARIAEACGITGIRVEKASEVDEALQRAFSIDGPVLVDVVVAKEELAIPPQIKLEQAKGFSLYMLRAIISGRGDEVIELAKTNWLR
B7: YeaUEc: Enzyme candidate for BDO biosynthetic pathway step A5, SEQ ID NO. 59 (protein, listed as Escherichia coli)
chain: MMKTMRIAAIPGDGIGKEVLPEGIRVLQAAAERWGFALSFEQMEWASCEYYSHHGKMMPDDWHEQLSRFDAIYFGAVGWPDTVPDHISLWGSLLKFRREFDQYVNLRPVRLFPGVPCPLAGKQPGDIDFYVVRENTEGEYSSLGGRVNEGTEHEVVIQESVFTRRGVDRILRYAFELAQSRPRKTLTSATKSNGLAISMPYWDERVEAMAENYPEIRWDKQHIDILCARFVMQPERFDVVVASNLFGDILSDLGPACTGTIGIAPSANLNPERTFPSLFEPVHGSAPDIYGKNIANPIATIWAGAMMLDFLGNGDERFQQAHNGILAAIEEVIAHGPKTPDMKGNATTPQVADAICKIILR

Test system: 5-hydroxy-2-oxopentanoate
Assay: Enzyme assay, decarboxylase (step A5), aldehyde dehydrogenase linked reaction
Assay type: biochemical
Set-up: key: +: measureable activity detected in the assay; −: no measurable activity detected in the assay
Details: BDO biosynthetic pathway step A5
Procedure: Enzyme expression and crude lysate preparation. The enzymatic activity of each candidate enzyme is evaluated, first in E. coli and subsequently in C. glutamicum. It will be apparent to one of skill in the art that the expression and lysate preparations may need to be modified depending on the host cell and recombinant gene of interest.
E. coli: E. coli strains transformed with expression clones, for example, pUC18 or MB4124 based clones having a medium strong constitutive promoter regulating the recombinant gene of interest, are grown aerobically in LB medium (Difco) containing the appropriate antibiotic(s). At an OD600 of 0.5, IPTG is added to a final concentration of 0.25 mM. The cultures are grown to a final OD600 of 1.5 at which time the cells are collected and harvested by centrifugation. Cell pellets are resuspended in BugBuster (Novagen) reagent containing benzonase and lysozyme. Alternatively, E. coli strains transformed with expression clones, are grown overnight aerobically at 37° C. in BHI containing the appropriate antibiotic(s). 300 μL of fresh overnight culture is used to inoculate 2.7 mL BHI containing 0.25 mM IPTG and the appropriate antibiotic. The cultures are grown aerobically for 4-5 hours at 37° C. at which time the cells are collected and harvested by centrifugation. Cell pellets are frozen at −80° C. for at least 15 minutes, then thawed and resuspended in BugBuster (Novagen) reagent. Lysis and lysate collection are performed according to the manufacturer's instructions and, for example, may involve use of a sonicator and/or French press. Cleared lysates are stored on ice until enzyme assays are performed.
C. glutamicum: C. glutamicum strains transformed with MB4124 expression clones containing the recombinant gene of interest are grown aerobically in BHI broth supplemented with the proper antibiotic(s). At an OD600 of 0.5, IPTG is added to a final concentration of 0.25 mM. The cultures are grown to a final OD600 of 1.5 at which time the cells are collected and harvested by centrifugation. The pellet is washed once in one volume of water and resuspended in lysis buffer (1.0 ml 1.0 M HEPES buffer, pH 7.5, 0.5 ml 1M KOH, 10 μl 0.5M EDTA, protease inhibitor cocktail, water to 5 ml; the final pH will vary depending on the individual enzyme being tested) and one volume of 0.1 mm acid washed glass beads. The mixture is repeatedly alternately vortexed and held on ice for 15 seconds, eight times. After centrifugation for 5 min at 4,000 rpm, the supernatant lysate is removed and respun for 20 min at 10,000 rpm. Alternatively, C. glutamicum strains transformed with MB4124 expression clones containing the recombinant gene of interest are grown aerobically overnight in BHI broth supplemented with the proper antibiotic(s). Five mL of fresh overnight culture is used to inoculate 200 mL BHI containing 0.25 mM IPTG and the appropriate antibiotic. The cultures are grown aerobically at 30° C. for 5-7 hours at which time the cells are collected and harvested by centrifugation at 4° C. The pellet is resuspended in 15 mL ice cold 39 mM KH2PO4, 61 mM K2HPO4, 0.5 M KCl and lysed using a BioSpec BeadBeater and following the manufacturer's instructions. The lysate is centrifuged at 16,000 RPM at 4° C. for 30 minutes and the supernatant retained on ice as the extract.
Protein Assays. Protein concentrations in lysates are determined according to the methods of Bradford et al. (Anal. Biochem. 72:248-254 [1976]) or by the method of Smith et al. (Anal. Biochem. 150(1):76-85 [1985]) and lysates are assayed according to the methods below.
Enzyme Assays. Enzyme assays are performed on the cell lysates prepared above. The activity for each recombinant enzyme is compared to a lysate from a vector only control culture which is generated in a fashion identical to the recombinant enzyme lysate. […]

Row | Molecule | Enzyme Assay
1 | B1 | −
2 | B2 | −
3 | B3 | −
4 | B4 | −
5 | B5 | −
6 | B6 | −
7 | B7 | −
